± gives the uncertainty stated by the source.
Assay: protein stability index of a GFP-peptide fusion (yeast GPS) (PSI 1-4); higher = more stable; sorted into four equal gates, so the index is relative within each strain
In short: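 The protein stability index of a peptide was calculated by multiplying its read frequency in each gate by that gate's number and adding the products. The peptides were tiled 17-residue stretches of yeast proteins, fused downstream of GFP on a Cherry-expressing plasmid and carried in yeast as a pooled library. Mid-log cultures in leucine-free medium were sorted into four equal gates by GFP/Cherry ratio, and each gate's plasmids were PCR-amplified and Illumina-sequenced.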

Row | Sequence | protein stability index (doa10∆) | protein stability index (pdr5∆) | protein stability index (san1∆) | protein stability index (ubr1∆)
1 | VLTRMDEDRSKKEEELG [SNF2] | 3.51 ± 0.11 | 3.22 ± 0.1 | 3.38 ± 0.071 | 3.27 ± 0.084
2 | ELLANKCPLLVEVDITL [GRR1] | 1.44 ± 0.06 | 1.58 ± 0.047 | 1.59 ± 0.082 | 1.47 ± 0.041
3 | RTMDDIKDSVREVGTKF [ECM29] | 3.35 ± 0.11 | 3.47 ± 0.11 | 3.27 ± 0.088 | 3.29 ± 0.072
4 | EAARICANKYMTTVSGR [RPL10] | 2.24 ± 0.24 | 2.59 ± 0.14 | 1.75 ± 0.2 | 1.93 ± 0.1
5 | FERFPSPSTSANVPSTA [RPN4] | 1.81 ± 0.046 | 1.92 ± 0.04 | 1.56 ± 0.077 | 2.36 ± 0.039
6 | MDVDQFDFLDDGTAQLS [YJR042W/NUP85] | 2.46 ± 0.079 | 2.98 ± 0.075 | 3.32 ± 0.068 | 2.53 ± 0.063
7 | GLRAVRKNRYVILQSDL [RPT3] | 3.05 ± 0.081 | 3.06 ± 0.1 | 3.05 ± 0.08 | 3.31 ± 0.14
8 | TLTASPDGTLIASAGKD [ASC1] | 2.86 ± 0.093 | 3.19 ± 0.1 | 3.12 ± 0.065 | 3.14 ± 0.063
9 | ALDFRNVSIVANYIKER [SMC4] | 1.51 ± 0.069 | 2.04 ± 0.058 | 1.51 ± 0.11 | 1.82 ± 0.058
10 | ALMRCSFEETVEILFEA [RPO21] | 3.12 ± 0.082 | 2.6 ± 0.079 | 3.06 ± 0.062 | 2.85 ± 0.069
11 | ELSDNEENFEATRTLVA [YCG1] | 3.13 ± 0.12 | 3.09 ± 0.096 | 2.89 ± 0.14 | 3.04 ± 0.081
12 | CFSINDDPVPTPPAIEH [SSN2] | 2.42 ± 0.25 | 2.1 ± 0.26 |  | 
13 | AKNFSAQKRVVSYMMPS [SRB8] | 2.02 ± 0.17 |  | 2.28 ± 0.15 | 1.96 ± 0.13
14 | SAIDVLDPLTKDPVDFV [RPN2] | 3.21 ± 0.088 | 3.29 ± 0.076 | 3.15 ± 0.074 | 3.12 ± 0.096
15 | SFSDENSDDFFMDNSYD [ESC2] | 1.97 ± 0.068 | 1.8 ± 0.11 | 2.63 ± 0.1 | 1.81 ± 0.062
16 | NIQGITKPAIRRLARRG [HHF1] | 3.27 ± 0.1 | 3.24 ± 0.093 | 2.89 ± 0.092 | 3.35 ± 0.066
17 | NDANITSNKEGFNSIWK [SSN2] | 3.17 ± 0.077 | 3.26 ± 0.079 | 3.3 ± 0.051 | 3.09 ± 0.069
18 | YDSRTTIFSPEGRLYQV [PRE9] | 3.02 ± 0.1 | 3.31 ± 0.075 | 2.97 ± 0.078 | 3.09 ± 0.063
19 | KVLINDQLSTISMILRN [SWI1] | 2.28 ± 0.047 | 2.79 ± 0.062 | 2.17 ± 0.07 | 2.68 ± 0.042
20 | NASANSTSFSFNAPATG [YOR098C/NUP1] | 2.99 ± 0.049 | 2.94 ± 0.051 | 3.05 ± 0.046 | 2.96 ± 0.033
21 | KPYVDRFAFSVIWELDD [DIS3] | 1.93 ± 0.046 | 1.98 ± 0.047 | 2.15 ± 0.05 | 2.38 ± 0.034
22 | EMINEQKLPQYIIQGSN [RGR1] |  | 2.96 ± 0.27 |  | 3.15 ± 0.2
23 | MKQYSYLMDSKNVRTRI [RRI1] |  | 2.6 ± 0.26 |  | 2.94 ± 0.22
24 | ADDADIEMKDVSSKPSK [MED1] | 3.17 ± 0.1 | 3.29 ± 0.11 | 2.95 ± 0.065 | 3.26 ± 0.066
25 | SGEPIIAATQDFITGSY [RPO31] | 3.36 ± 0.1 | 3.3 ± 0.095 | 3.13 ± 0.12 | 3.18 ± 0.039
26 | DLVLGKPLADLRPLFTR [YLR335W/NUP2] | 2.97 ± 0.072 | 2.76 ± 0.11 | 2.84 ± 0.16 | 2.27 ± 0.069
27 | NANTGFSFGGTQTGQNT [YGL172W/NUP49] | 3.42 ± 0.14 | 3.21 ± 0.11 | 3.23 ± 0.086 | 3.49 ± 0.11

Reference: the supplement of paper PMC9732359
